Source: patent US20250197493A1

How the values were obtained:
[1] = molecular target: cell membrane-expressed human LAG-3 (human) (UniProt P18627); assay: flow cytometry, SEB-activated human PBMCs, CD4 T cells, percent of cells bound (isotype control)
[2] = molecular target: cell membrane-expressed human LAG-3 (human) (UniProt P18627); assay: flow cytometry, SEB-activated human PBMCs, CD8 T cells, percent of cells bound (isotype control)
[3] = molecular target: cell membrane-expressed cynomolgus LAG-3 (cynomolgus monkey); assay: flow cytometry, SEB-activated cynomolgus PBMCs, CD4 T cells, percent of cells bound (isotype control)
[4] = molecular target: cell membrane-expressed cynomolgus LAG-3 (cynomolgus monkey); assay: flow cytometry, SEB-activated cynomolgus PBMCs, CD8 T cells, percent of cells bound (isotype control)

Sequence of cell membrane-expressed human LAG-3 (human) (P18627 23-525 limits assumed): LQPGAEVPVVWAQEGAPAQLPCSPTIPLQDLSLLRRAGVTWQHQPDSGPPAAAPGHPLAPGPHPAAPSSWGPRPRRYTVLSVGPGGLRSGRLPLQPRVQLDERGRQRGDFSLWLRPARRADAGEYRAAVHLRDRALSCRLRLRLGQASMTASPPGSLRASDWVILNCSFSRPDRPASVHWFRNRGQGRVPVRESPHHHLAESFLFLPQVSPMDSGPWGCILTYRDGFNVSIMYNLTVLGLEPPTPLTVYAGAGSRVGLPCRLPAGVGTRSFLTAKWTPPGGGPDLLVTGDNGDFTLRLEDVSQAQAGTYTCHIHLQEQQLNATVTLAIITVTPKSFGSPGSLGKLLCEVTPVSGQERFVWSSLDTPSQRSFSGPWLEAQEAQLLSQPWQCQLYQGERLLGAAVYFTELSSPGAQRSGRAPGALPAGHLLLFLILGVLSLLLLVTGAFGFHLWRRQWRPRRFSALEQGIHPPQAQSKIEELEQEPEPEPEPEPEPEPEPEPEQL

EC50 [1]: 0.39 µg/mL | EC50 [2]: 0.676 µg/mL | EC50 [3]: 2450 µg/mL | EC50 [4]: 8.66 µg/mL
Substance: Isotype hG1 (antibody)
